Results as given in US20080095824A1, “Delivery of drugs from sustained release devices implanted in myocardial tissue or in the pericardial space” (Durect Corporation, priority 2001, published 2008).
Where two headings read alike, the source gives them in different places.

How the values were obtained:
in vivo = details: rat
[1] = rat, in vivo
[2] = Time course of infusion into the pericardial space; format: in vivo, male Wistar rats; details: for plasma concentration over time: intrapericardial infusion, 7-day period (bFGF: day 3 through day 7)
Method: Substances were administered to the pericardial space of male Wistar rats weighing 250-300 grams by infusion via catheter for 1 week using an Alzet™ osmotic minipump at a volume rate of about 1 μl/hour. Blood and pericardial fluid samples were taken at various time points and the concentration of administered substances was measured fluorimetrically (for fluorescently labeled compounds) or by HPLC (for steroids). Concentration of fluorescently labeled compounds is expressed as fluorescent units/ml fluid.

[3] = In vitro release from SAIB depot of Example 2A; format: physicochemical; details: SAIB:benzyl benzoate:DL-PLG 83:12:5 depot, 500 μL in PBS pH 7.4, 37° C.
Method: In this embodiment sotalol (an anti-arrhythmic) is delivered from a depot comprising sucrose acetate isobutyrate (SAIB). A formulation is prepared by mixing SAIB (Eastman Chemical Co.) and benzyl benzoate (Aldrich Chemical Co.) and ploy (DL-lactide-co-glycolide) (DL-PLG) or DL-poly(lactide) (DLPL) in a ratio of 83:12:5 (weight basis) and stirring until a homogeneous mixture is achieved. 10 μg of sotalol is added to 500 μL of the SAIB:benzyl benzoate:DLPLG formulation.
The final depot formulation is prepared by passing the mixture repeatedly between a pair of 5 ml syringes equipped with needles. Multiple passes are performed until a solution is achieved. The final concentration of sotalol in the depot is 0.02 μg/ul.
To determine, in vitro, the release of […] from the formulation, 500 μL of the depot is placed in 750 μL of dissolution buffer (PBS, 0.01 M, pH 7.4 with sodium azide) in a 1.5 mL Eppendorf microcentrifuge tube. The formulations are incubated at 37° C. with no agitation. The entire dissolution buffer is removed and replaced with fresh buffer at the desired sampling times (0.25, 0.5, 1, 2, 3, 4, 5, 6, 24 hr and daily thereafter). The samples are assayed for protein concentration by ELISA. The release rate of drug from this depot is about 0.3 μg per day.

[4] = Pharmacokinetics after intrapericardial or intra-arterial bolus injection; format: in vivo, rats; details: mean ± SE
Method: Immediately after implantation of the pericardial catheter, rats (still under anesthesia) were provided either with a catheter in the right femoral artery essentially as described (Smits et al., 1982). Rats were allowed to recover at least 2 days before experimentation> One hour before start of the experiment, 20 μl pericardial fluid was withdrawn using a Hamilton 1705 (Hamilton Bonaduz, Bonaduz, Switzerland) syringe and 50 μl of saline were injected into pericardial space to check the integrity of the pericardial catheter. Injections of volumes up to 0.2 ml were previously shown to be without hemodynamic effects (Veelken et al., 1990). Blood (0.15-0.25 ml) was collected in a syringe, containing a minimal volume of heparin (Organon Teknika, Boxtel, the Netherlands). Pericardial fluid was diluted 10 times in PBS and the blood was centrifuged for 20 minutes at 3500 rpm to obtain plasma. These samples served as blanks for later analyses. Experiments in which substances were applied intrapericardially were started by a 50 μl bolus injection of the test substances into pericardial space, followed by 20 μl saline to flush the catheter. If substances were applied systemically, experiments were started by a 100 μl bolus injection of the substances and subsequent injection of 300 μl saline into the femoral artery catheter. FITC rat IgG, (10 mg/ml), Texas Red RSA (10 mg/ml), and FITC heparin (1 mg/ml) were dissolved in PBS.
Pericardial fluid (20 μl) and blood samples were taken at various time points after injection. To substitute withdrawn pericardial fluid, 20 μl of saline was injected into pericardial space immediately after sampling. After every sample, the femoral artery catheter was flushed with 0.3 to 0.4 ml saline and filled with heparinized (5-10 IU/ml) saline. Plasma and pericardial fluid samples were stored at −20° C. until analysis.
Data were standardized for bodyweights. Pharmacokinetic analysis of the data for each animal was conducted using the GPAD (GraphPAD Software, San Diego, Calif.) software package. Data were fitted to the exponential equation Ct=A.e^−αt+B. e^−βt of one-(i.e. A is fixed at 0) and two compartment models. Fits were compared using F-tests and data were log transformed for model judgement.

[5] = 7-day intrapericardial infusion (bFGF: days 3 to 7)
[6] = pericardial fluid after intrapericardial bolus injection
[7] = plasma after intra-arterial bolus injection

| Compound | ratio of concentration in pericardial fluid to concentration in plasma [2, 5] | plasma concentration over time [2] | Cl (clearance, Dose/AUC) [4, 6] [µL/min/kg] | Vc (initial central compartment volume) [4, 6] [µL/kg] | t1/2α [4, 6] [min] | t1/2β [4, 6] [min] | Cl (clearance, Dose/AUC) [4, 7] [µL/min/kg] | Vc (initial central compartment volume) [4, 7] [µL/kg] | t1/2β [4, 7] [min] | Peric/plasma ratio [1] | Peric/plasma ratio ([1]; iv) | also measured |
| --- | --- | --- | --- | --- | --- | --- | --- | --- | --- | --- | --- | --- |
| C[C@]12CCC(=O)C=C1CC[C@@H]1[C@@H]2[C@@H](O)C[C@@]2(C)[C@H]1CC[C@]2(O)C(=O)CO [Cortisol] | 12-50 | remained at a constant, low level | – | – | – | – | – | – | – | – | – | Kp at 7 days (in vivo; Peric/plasma ratio): 14.4 ± 0.55; Kp at 7 days (in vivo; concentrations in plasma lower than in pericardial fluid): ≥ 7; Peric. Fluid concentration ([1]; 7 days): 1.59 ± 0.44; Plasma concentration ([1]; 7 days): 0.11 ± 0.03; Kp ([2]; male, Wistar, rat, pericardial fluid and plasma, other: intrapericardial infusion, 7-day intrapericardial infusion (bFGF: days 3 to 7), read-out: ratio of concentration in pericardial fluid to concentration in plasma): 12 to 52 |
| CC(C)NCC(O)COc1cccc2ccccc12 (centres unmarked) [propranolol] | – | – | – | – | – | – | – | – | – | – | – | release rate of drug from depot [3]: about 0.3 μg per day |
| Cortisol carbonic acid | – | – | – | – | – | – | – | – | – | – | – | clearance derived from steady-state concentration (infusion dose rate/steady state concentration) [1]: 30.8 ± 3.52 µL/kg/min |
| Texas Red FGF-2: Texas Red-labelled fibroblast growth factor-2 (basic FGF) | 2-10 | remained at a low level | 8.05 ± 0.33 | 497 ± 70 | 17.3 ± 5.5 | 102 ± 19 | 84.2 ± 10.3 | 39990 ± 923 | 338 ± 31 | 6.85 ± 1.61 (4) | 1.01 ± 0.38 (2) | concentration in the pericardial fluid over time ([2]; between day 3 and day 7 after the start of infusion): rose gradually |
| Texas Red RSA: Texas Red-labelled rat serum albumin | 9-15 | remained at a constant, low level | 3.72 ± 0.90 | 892 ± 207 | 46.8 ± 14 | 589 ± 133 | 40.5 ± 2.76 | 34734 ± 1761 | 1132 ± 300 | 8.11 ± 2.60 (4) | 0.98 ± 0.26 (4) | t1/2α [4, 7]: 89 ± 14.8 min; concentration in the pericardial fluid ([2]; day 1 after the start of intrapericardial infusion): about 375 FU/ml; concentration in the pericardial fluid ([2]; day 3, remained at this level through day 7): about 190 FU/ml |
